{
  "source": "paper PMC10786891",
  "about": "“Massively parallel profiling of RNA-targeting CRISPR-Cas13d”",
  "data": [
    {"biological_target": "T1, EsCas13d, nuclease-dead (Eubacterium siraeum, UniProt B0MS50, R295A;H300A;R849A;H854A)", "T1 sequence": "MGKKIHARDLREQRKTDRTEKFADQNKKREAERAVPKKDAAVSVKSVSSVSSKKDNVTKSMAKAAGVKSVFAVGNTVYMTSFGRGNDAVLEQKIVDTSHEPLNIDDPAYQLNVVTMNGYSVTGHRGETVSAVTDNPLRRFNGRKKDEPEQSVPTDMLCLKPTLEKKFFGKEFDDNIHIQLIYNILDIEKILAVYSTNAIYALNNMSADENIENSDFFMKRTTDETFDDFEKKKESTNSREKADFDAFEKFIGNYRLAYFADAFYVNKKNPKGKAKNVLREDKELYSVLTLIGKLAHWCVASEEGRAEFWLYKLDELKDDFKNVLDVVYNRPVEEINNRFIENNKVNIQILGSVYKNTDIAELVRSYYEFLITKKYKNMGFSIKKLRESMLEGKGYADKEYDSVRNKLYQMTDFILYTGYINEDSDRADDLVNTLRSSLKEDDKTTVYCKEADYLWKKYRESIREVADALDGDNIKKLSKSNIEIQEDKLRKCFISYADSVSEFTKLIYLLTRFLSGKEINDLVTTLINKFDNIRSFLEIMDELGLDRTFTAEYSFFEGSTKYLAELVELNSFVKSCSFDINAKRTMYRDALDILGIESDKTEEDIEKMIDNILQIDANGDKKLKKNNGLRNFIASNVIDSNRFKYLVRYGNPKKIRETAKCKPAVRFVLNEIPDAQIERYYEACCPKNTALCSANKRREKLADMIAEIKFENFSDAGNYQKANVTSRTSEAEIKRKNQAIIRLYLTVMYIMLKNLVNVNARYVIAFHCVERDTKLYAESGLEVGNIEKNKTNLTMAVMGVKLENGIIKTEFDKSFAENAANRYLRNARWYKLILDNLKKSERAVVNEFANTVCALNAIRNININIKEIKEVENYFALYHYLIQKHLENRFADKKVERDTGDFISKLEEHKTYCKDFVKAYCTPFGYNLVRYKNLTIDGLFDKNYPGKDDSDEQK", "experiment": "crRNA (strand 1, pre-loaded); Mg2+; 40 mM Tris-HCl pH 7.5, 150 mM NaCl, 6 mM MgCl2, 1 mM DTT, 0.1% Tween-20, 0.2 mg/ml BSA; 25 C; 10 min per concentration, then washed", "settings": "tags: His6-TwinStrep-SUMO cleaved; N-terminal SNAP kept (SNAP-Surface 488); label: 3' end held by stalled T7 RNA polymerase", "units": {"Kd": "nM"}, "values": [
      {"binder": "target 2 MT 5'PFS UUG 3'PFS CCU (mixed) RNA 1: CACCCGUGCAAAAUUGCAGGGGUCUAAAACCUUCUCCAAAUUGUUUCAUCCU RNA 2: GGGAAUGGAUCCACAUCUACGAAUUCUUGAGGAUGAAACAAUUUGGAGAAGCCUAGAUCGGAAGAGCACACGU", "Kd": "~80"},
      {"binder": "target 2 MT 5'PFS GAC 3'PFS CGC (mixed) RNA 1: CACCCGUGCAAAAUUGCAGGGGUCUAAAACCUUCUCCAAAUUGUUUCAUCCU RNA 2: GGGAAUGGAUCCACAUCUACGAAUUCGACAGGAUGAAACAAUUUGGAGAAGCGCAGAUCGGAAGAGCACACGU", "Kd": "14.8 ± 3.2"},
      {"binder": "target 2 MT 5'PFS GAG 3'PFS ACG (mixed) RNA 1: CACCCGUGCAAAAUUGCAGGGGUCUAAAACCUUCUCCAAAUUGUUUCAUCCU RNA 2: GGGAAUGGAUCCACAUCUACGAAUUCGAGAGGAUGAAACAAUUUGGAGAAGACGAGAUCGGAAGAGCACACGU", "Kd": "6.7 ± 0.32"},
      {"binder": "target 2 MT 5'PFS CGA 3'PFS AUC (mixed) RNA 1: CACCCGUGCAAAAUUGCAGGGGUCUAAAACCUUCUCCAAAUUGUUUCAUCCU RNA 2: GGGAAUGGAUCCACAUCUACGAAUUCCGAAGGAUGAAACAAUUUGGAGAAGAUCAGAUCGGAAGAGCACACGU", "Kd": "7.1 ± 1.4"},
      {"binder": "target 1 A1G,C2G (mixed) RNA 1: CACCCGUGCAAAAAUGCAGGGGUCUAAAACUGAGCGGAUAACCUCUCUAUGG RNA 2: GGGAAUGGAUCCACAUCUACGAAUUCGUACCAUAGAGAGGUUAUCCGCUGGCCGAGAUCGGAAGAGCACACGU", "Kd": "5.54 ± 0.24"},
      {"binder": "target 2 MT 5'PFS GAG 3'PFS ACA (mixed) RNA 1: CACCCGUGCAAAAUUGCAGGGGUCUAAAACCUUCUCCAAAUUGUUUCAUCCU RNA 2: GGGAAUGGAUCCACAUCUACGAAUUCGAGAGGAUGAAACAAUUUGGAGAAGACAAGAUCGGAAGAGCACACGU", "Kd": "9.6 ± 1.6"},
      {"binder": "target 2 MT 5'PFS GAG 3'PFS ACC (mixed) RNA 1: CACCCGUGCAAAAUUGCAGGGGUCUAAAACCUUCUCCAAAUUGUUUCAUCCU RNA 2: GGGAAUGGAUCCACAUCUACGAAUUCGAGAGGAUGAAACAAUUUGGAGAAGACCAGAUCGGAAGAGCACACGU", "Kd": "14 ± 4"},
      {"binder": "target 2 MT 5'PFS UUG 3'PFS CCG (mixed) RNA 1: CACCCGUGCAAAAUUGCAGGGGUCUAAAACCUUCUCCAAAUUGUUUCAUCCU RNA 2: GGGAAUGGAUCCACAUCUACGAAUUCUUGAGGAUGAAACAAUUUGGAGAAGCCGAGAUCGGAAGAGCACACGU", "Kd": "16.8 ± 1.4"},
      {"binder": "target 2 MT 5'PFS GUA 3'PFS UCC (mixed) RNA 1: CACCCGUGCAAAAUUGCAGGGGUCUAAAACCUUCUCCAAAUUGUUUCAUCCU RNA 2: GGGAAUGGAUCCACAUCUACGAAUUCGUAAGGAUGAAACAAUUUGGAGAAGUCCAGAUCGGAAGAGCACACGU", "Kd": "29 ± 5"},
      {"binder": "target 2 MT 5'PFS ACC 3'PFS UGA (mixed) RNA 1: CACCCGUGCAAAAUUGCAGGGGUCUAAAACCUUCUCCAAAUUGUUUCAUCCU RNA 2: GGGAAUGGAUCCACAUCUACGAAUUCACCAGGAUGAAACAAUUUGGAGAAGUGAAGAUCGGAAGAGCACACGU", "Kd": "8 ± 1.4"},
      {"binder": "target 2 MT 5'PFS GUA 3'PFS UCA (mixed) RNA 1: CACCCGUGCAAAAUUGCAGGGGUCUAAAACCUUCUCCAAAUUGUUUCAUCCU RNA 2: GGGAAUGGAUCCACAUCUACGAAUUCGUAAGGAUGAAACAAUUUGGAGAAGUCAAGAUCGGAAGAGCACACGU", "Kd": "10.3 ± 1.2"},
      {"binder": "target 2 MT 5'PFS ACC 3'PFS UGC (mixed) RNA 1: CACCCGUGCAAAAUUGCAGGGGUCUAAAACCUUCUCCAAAUUGUUUCAUCCU RNA 2: GGGAAUGGAUCCACAUCUACGAAUUCACCAGGAUGAAACAAUUUGGAGAAGUGCAGAUCGGAAGAGCACACGU", "Kd": "7.7 ± 2.2"},
      {"binder": "target 2 MT 5'PFS GAG 3'PFS ACU (mixed) RNA 1: CACCCGUGCAAAAUUGCAGGGGUCUAAAACCUUCUCCAAAUUGUUUCAUCCU RNA 2: GGGAAUGGAUCCACAUCUACGAAUUCGAGAGGAUGAAACAAUUUGGAGAAGACUAGAUCGGAAGAGCACACGU", "Kd": "8.1 ± 0.7"},
      {"binder": "target 2 MT 5'PFS CGA 3'PFS AUU (mixed) RNA 1: CACCCGUGCAAAAUUGCAGGGGUCUAAAACCUUCUCCAAAUUGUUUCAUCCU RNA 2: GGGAAUGGAUCCACAUCUACGAAUUCCGAAGGAUGAAACAAUUUGGAGAAGAUUAGAUCGGAAGAGCACACGU", "Kd": "10.6 ± 3.3"},
      {"binder": "target 2 MT 5'PFS CGC 3'PFS AUU (mixed) RNA 1: CACCCGUGCAAAAUUGCAGGGGUCUAAAACCUUCUCCAAAUUGUUUCAUCCU RNA 2: GGGAAUGGAUCCACAUCUACGAAUUCCGCAGGAUGAAACAAUUUGGAGAAGAUUAGAUCGGAAGAGCACACGU", "Kd": "5 ± 0.8"},
      {"binder": "target 1 insA 3' of 7,insG 3' of 3 (mixed) RNA 1: CACCCGUGCAAAAAUGCAGGGGUCUAAAACUGAGCGGAUAACCUCUCUAUGG RNA 2: GGGAAUGGAUCCACAUCUACGAAUUCGUACCAUAGAGAGGUUAUCACGCUGCACCGAGAUCGGAAGAGCACACGU", "Kd": "4.65 ± 0.13"},
      {"binder": "target 2 MT 5'PFS ACA 3'PFS ACU (mixed) RNA 1: CACCCGUGCAAAAUUGCAGGGGUCUAAAACCUUCUCCAAAUUGUUUCAUCCU RNA 2: GGGAAUGGAUCCACAUCUACGAAUUCACAAGGAUGAAACAAUUUGGAGAAGACUAGAUCGGAAGAGCACACGU", "Kd": "6.3 ± 1.3"},
      {"binder": "target 2 MT 5'PFS ACC 3'PFS UAA (mixed) RNA 1: CACCCGUGCAAAAUUGCAGGGGUCUAAAACCUUCUCCAAAUUGUUUCAUCCU RNA 2: GGGAAUGGAUCCACAUCUACGAAUUCACCAGGAUGAAACAAUUUGGAGAAGUAAAGAUCGGAAGAGCACACGU", "Kd": "~12"},
      {"binder": "target 2 MT 5'PFS AUU 3'PFS AAU (mixed) RNA 1: CACCCGUGCAAAAUUGCAGGGGUCUAAAACCUUCUCCAAAUUGUUUCAUCCU RNA 2: GGGAAUGGAUCCACAUCUACGAAUUCAUUAGGAUGAAACAAUUUGGAGAAGAAUAGAUCGGAAGAGCACACGU", "Kd": "7.1 ± 1.4"},
      {"binder": "target 2 MT 5'PFS CGC 3'PFS AUC (mixed) RNA 1: CACCCGUGCAAAAUUGCAGGGGUCUAAAACCUUCUCCAAAUUGUUUCAUCCU RNA 2: GGGAAUGGAUCCACAUCUACGAAUUCCGCAGGAUGAAACAAUUUGGAGAAGAUCAGAUCGGAAGAGCACACGU", "Kd": "4.6 ± 0.6"},
      {"binder": "target 2 MT 5'PFS ACA 3'PFS ACA (mixed) RNA 1: CACCCGUGCAAAAUUGCAGGGGUCUAAAACCUUCUCCAAAUUGUUUCAUCCU RNA 2: GGGAAUGGAUCCACAUCUACGAAUUCACAAGGAUGAAACAAUUUGGAGAAGACAAGAUCGGAAGAGCACACGU", "Kd": "7.2 ± 2.3"},
      {"binder": "target 2 MT 5'PFS CGC 3'PFS AUA (mixed) RNA 1: CACCCGUGCAAAAUUGCAGGGGUCUAAAACCUUCUCCAAAUUGUUUCAUCCU RNA 2: GGGAAUGGAUCCACAUCUACGAAUUCCGCAGGAUGAAACAAUUUGGAGAAGAUAAGAUCGGAAGAGCACACGU", "Kd": "4 ± 0.5"},
      {"binder": "target 2 MT 5'PFS CGC 3'PFS AUG (mixed) RNA 1: CACCCGUGCAAAAUUGCAGGGGUCUAAAACCUUCUCCAAAUUGUUUCAUCCU RNA 2: GGGAAUGGAUCCACAUCUACGAAUUCCGCAGGAUGAAACAAUUUGGAGAAGAUGAGAUCGGAAGAGCACACGU", "Kd": "5 ± 0.6"},
      {"binder": "target 2 MT 5'PFS GAU 3'PFS UCU (mixed) RNA 1: CACCCGUGCAAAAUUGCAGGGGUCUAAAACCUUCUCCAAAUUGUUUCAUCCU RNA 2: GGGAAUGGAUCCACAUCUACGAAUUCGAUAGGAUGAAACAAUUUGGAGAAGUCUAGAUCGGAAGAGCACACGU", "Kd": "56 ± 15"}
    ]}
  ]
}
